According to US20140248254:

Target: G-Actin protein

B1: Mus AChE protein (AChE 1-548AA, mouse) (protein)
chain: EGREDPQLLVRVRGGQLRGIRLKAPGGPVSAFLGIPFAEPPVGSRRFMPPEPKRPWSGVLDATTFQNVCYQYVDTLYPGFEGTEMWNPNRELSEDCLYLNVWTPYPRPASPTPVLIWIYGGGFYSGAASLDVYDGRFLAQVEGAVLVSMNYRVGTFGFLALPGSREAPGNVGLLDQRLALQWVQENIAAFGGDPMSVTLFGESAGAASVGMHILSLPSRSLFHRAVLQSGTPNGPWATVSAGEARRRATLLARLVGCPPGGAGGNDTELIACLRTRPAQDLVDHEWHVLPQESIFRFSFVPVVDGDFLSDTPEALINTGDFQDLQVLVGVVKDEGSYFLVYGVPGFSKDNESLISRAQFLAGVRIGVPQASDLAAEAVVLHYTDWLHPEDPTHLRDAMSAVVGDHNVVCPVAQLAGRLAAQGARVYAYIFEHRASTLTWPLWMGVPHGYEIEFIFGLPLDPSLNYTTEERIFAQRLMKYWTNFARTGDPNDPRDSKSPQWPPYTTAAQQYVSLNLKP
In the case of B1, the “cleaving of plasmid DNA by AChE (agarose gel) after pre-incubation with G-Actin” value is reported as “it almost had no effect on cleaving ability of AChE on DNA”.
